Data published in paper PMC10397247.
One block for each binder: values may come before it.

Tests used:
P2-AA-1HAA-T = molecular target: T1, P2-AA-1HAA-T; experiment: two-hybrid library CCmax; conditions: mean of both orientations;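 also: natural log of median RNA to DNA barcode read ratio; higher means stronger binding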
T1 chain: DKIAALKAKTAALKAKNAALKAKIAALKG

P2-AA-1HAA-R = molecular target: T2, P2-AA-1HAA-R; experiment: two-hybrid library CCmax; conditions: mean of both orientations;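 also: natural log of median RNA to DNA barcode read ratio; higher means stronger binding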
T2 chain: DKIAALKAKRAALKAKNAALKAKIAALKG

P2-AA = molecular target: T3, P2-AA; experiment: two-hybrid library CCmax; conditions: mean of both orientations;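 also: natural log of median RNA to DNA barcode read ratio; higher means stronger binding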
T3 chain: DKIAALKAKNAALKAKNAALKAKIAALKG

P2-AA-1HAA-E = molecular target: T4, P2-AA-1HAA-E; experiment: two-hybrid library CCmax; conditions: mean of both orientations;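 also: natural log of median RNA to DNA barcode read ratio; higher means stronger binding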
T4 chain: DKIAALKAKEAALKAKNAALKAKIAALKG

P2-AA-1HAA-K = molecular target: T5, P2-AA-1HAA-K; experiment: two-hybrid library CCmax; conditions: mean of both orientations;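 also: natural log of median RNA to DNA barcode read ratio; higher means stronger binding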
T5 chain: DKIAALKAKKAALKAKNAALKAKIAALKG

P2-AA-1HAA-S = molecular target: T6, P2-AA-1HAA-S; experiment: two-hybrid library CCmax; conditions: mean of both orientations;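 also: natural log of median RNA to DNA barcode read ratio; higher means stronger binding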
T6 chain: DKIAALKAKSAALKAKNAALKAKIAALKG

4H341-AA = molecular target: T7, 4H341-AA; experiment: two-hybrid library CCmax; conditions: mean of both orientations
T7 chain: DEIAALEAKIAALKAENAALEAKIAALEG

4H1913-AA = molecular target: T8, 4H1913-AA; experiment: two-hybrid library CCmax; conditions: mean of both orientations
T8 chain: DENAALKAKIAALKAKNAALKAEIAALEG

4H3414-AA = molecular target: T9, 4H3414-AA; experiment: two-hybrid library CCmax; conditions: mean of both orientations
T9 chain: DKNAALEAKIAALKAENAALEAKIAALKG

4H1360-AA = molecular target: T10, 4H1360-AA; experiment: two-hybrid library CCmax; conditions: mean of both orientations
T10 chain: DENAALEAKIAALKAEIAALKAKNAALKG

4H2961-AA = molecular target: T11, 4H2961-AA; experiment: two-hybrid library CCmax
T11 chain: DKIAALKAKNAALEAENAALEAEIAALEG

4H2728-AA = molecular target: T12, 4H2728-AA; experiment: two-hybrid library CCmax; conditions: mean of both orientations
T12 chain: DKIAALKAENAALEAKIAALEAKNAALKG

4H63-AA = molecular target: T13, 4H63-AA; experiment: two-hybrid library CCmax; conditions: mean of both orientations
T13 chain: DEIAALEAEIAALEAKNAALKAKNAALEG

4H3129-AA = molecular target: T14, 4H3129-AA; experiment: two-hybrid library CCmax; conditions: mean of both orientations
T14 chain: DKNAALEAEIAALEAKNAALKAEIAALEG

4H2903-AA = molecular target: T15, 4H2903-AA; experiment: two-hybrid library CCmax; conditions: mean of both orientations
T15 chain: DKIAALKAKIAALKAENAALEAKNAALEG

4H446-AA = molecular target: T16, 4H446-AA; experiment: two-hybrid library CCmax; conditions: mean of both orientations
T16 chain: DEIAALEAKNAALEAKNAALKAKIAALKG

4H1349-AA = molecular target: T17, 4H1349-AA; experiment: two-hybrid library CCmax; conditions: mean of both orientations
T17 chain: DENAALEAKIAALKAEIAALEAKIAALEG

4H3595-AA = molecular target: T18, 4H3595-AA; experiment: two-hybrid library CCmax; conditions: mean of both orientations
T18 chain: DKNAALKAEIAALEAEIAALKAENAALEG

4H3782-AA = molecular target: T19, 4H3782-AA; experiment: two-hybrid library CCmax; conditions: mean of both orientations
T19 chain: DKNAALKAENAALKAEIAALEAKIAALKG

4H1558-AA = molecular target: T20, 4H1558-AA; experiment: two-hybrid library CCmax; conditions: mean of both orientations
T20 chain: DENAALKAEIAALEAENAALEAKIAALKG

4H130-AA = molecular target: T21, 4H130-AA; experiment: two-hybrid library CCmax
T21 chain: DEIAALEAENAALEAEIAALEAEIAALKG

4H483-AA = molecular target: T22, 4H483-AA; experiment: two-hybrid library CCmax; conditions: mean of both orientations
T22 chain: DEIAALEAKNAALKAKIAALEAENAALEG

4H2774-AA = molecular target: T23, 4H2774-AA; experiment: two-hybrid library CCmax; conditions: mean of both orientations
T23 chain: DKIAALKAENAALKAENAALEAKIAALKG

4H1454-AA = molecular target: T24, 4H1454-AA; experiment: two-hybrid library CCmax; conditions: mean of both orientations
T24 chain: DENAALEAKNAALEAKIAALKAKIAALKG

4H3939-AA = molecular target: T25, 4H3939-AA; experiment: two-hybrid library CCmax; conditions: mean of both orientations
T25 chain: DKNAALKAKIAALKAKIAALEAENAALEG

4H2580-AA = molecular target: T26, 4H2580-AA; experiment: two-hybrid library CCmax; conditions: mean of both orientations
T26 chain: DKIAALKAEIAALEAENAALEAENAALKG

4H3629-AA = molecular target: T27, 4H3629-AA; experiment: two-hybrid library CCmax; conditions: mean of both orientations
T27 chain: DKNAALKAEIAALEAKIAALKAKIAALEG

4H2699-AA = molecular target: T28, 4H2699-AA; experiment: two-hybrid library CCmax; conditions: mean of both orientations
T28 chain: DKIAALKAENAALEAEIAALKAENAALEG

4H464-AA = molecular target: T29, 4H464-AA; experiment: two-hybrid library CCmax; conditions: mean of both orientations
T29 chain: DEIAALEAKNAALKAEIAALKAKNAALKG

4H2621-AA = molecular target: T30, 4H2621-AA; experiment: two-hybrid library CCmax; conditions: mean of both orientations
T30 chain: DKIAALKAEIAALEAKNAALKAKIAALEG

4H3969-AA = molecular target: T31, 4H3969-AA; experiment: two-hybrid library CCmax; conditions: mean of both orientations
T31 chain: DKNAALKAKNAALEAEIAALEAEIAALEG

4H380-AA = molecular target: T32, 4H380-AA; experiment: two-hybrid library CCmax; conditions: mean of both orientations
T32 chain: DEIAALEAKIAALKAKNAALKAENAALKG

4H3049-AA = molecular target: T33, 4H3049-AA; experiment: two-hybrid library CCmax; conditions: mean of both orientations
T33 chain: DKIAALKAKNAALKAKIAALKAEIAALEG

4H249-AA = molecular target: T34, 4H249-AA; experiment: two-hybrid library CCmax; conditions: mean of both orientations
T34 chain: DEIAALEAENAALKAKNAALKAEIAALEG

P11A-bA = molecular target: T35, P11A-bA; experiment: two-hybrid library CCNG1
T35 chain: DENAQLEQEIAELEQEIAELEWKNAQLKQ

P12A-bA = molecular target: T36, P12A-bA; experiment: two-hybrid library CCNG1
T36 chain: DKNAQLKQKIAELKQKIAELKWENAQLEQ

P4A-bA = molecular target: T37, P4A-bA; experiment: two-hybrid library CCNG1
T37 chain: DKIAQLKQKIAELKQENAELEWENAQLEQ

P1A-bA = molecular target: T38, P1A-bA; experiment: two-hybrid library CCNG1
T38 chain: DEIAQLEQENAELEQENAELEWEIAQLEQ

P9A-bA = molecular target: T39, P9A-bA; experiment: two-hybrid library CCNG1
T39 chain: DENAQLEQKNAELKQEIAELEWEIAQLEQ

P6A-bA = molecular target: T40, P6A-bA; experiment: two-hybrid library CCNG1
T40 chain: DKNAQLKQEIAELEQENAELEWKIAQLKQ

P3A-bA = molecular target: T41, P3A-bA; experiment: two-hybrid library CCNG1
T41 chain: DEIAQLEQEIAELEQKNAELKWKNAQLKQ

P2A-bA = molecular target: T42, P2A-bA; experiment: two-hybrid library CCNG1
T42 chain: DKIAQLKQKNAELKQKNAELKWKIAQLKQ

P8A-bA = molecular target: T43, P8A-bA; experiment: two-hybrid library CCNG1
T43 chain: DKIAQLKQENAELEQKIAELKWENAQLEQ

P7A-bA = molecular target: T44, P7A-bA; experiment: two-hybrid library CCNG1
T44 chain: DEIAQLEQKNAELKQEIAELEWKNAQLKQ

P5A-bA = molecular target: T45, P5A-bA; experiment: two-hybrid library CCNG1
T45 chain: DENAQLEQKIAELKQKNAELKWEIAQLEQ

- interaction score (P2-AA-1HAA-T): 1.66
- interaction score (P2-AA-1HAA-R): 1.9
- interaction score (P2-AA): 1.82
- interaction score (P2-AA-1HAA-E): 0.691
- interaction score (P2-AA-1HAA-K): 1.57
- interaction score (P2-AA-1HAA-S): 1.57
Binder: DEIAALEAEEAALEAENAALEAEIAALEG [P1-AA-1HAA-E]

- interaction score (4H341-AA): 0.154
- interaction score (4H1913-AA): 1.08
- interaction score (4H3414-AA): 1
- interaction score (4H1360-AA): 1.22
- interaction score (4H2961-AA): -0.589
- interaction score (4H2728-AA): 0.54
- interaction score (4H63-AA): -1.29
- interaction score (4H3129-AA): -0.746
- interaction score (4H2903-AA): -1.15
- interaction score (4H446-AA): 1.05
- interaction score (4H1349-AA): -0.443
- interaction score (4H3595-AA): 0.698
- interaction score (4H3782-AA): 1.3
- interaction score (4H1558-AA): -0.952
- interaction score (4H130-AA): 1.11
- interaction score (4H483-AA): 0.0918
- interaction score (4H2774-AA): 0.9
- interaction score (4H1454-AA): 1.52
- interaction score (4H3939-AA): 1.29
- interaction score (4H2580-AA): -1.46
- interaction score (4H3629-AA): 0.896
- interaction score (4H2699-AA): -0.46
- interaction score (4H464-AA): 1.95
- interaction score (4H2621-AA): 0.962
- interaction score (4H3969-AA): -0.404
- interaction score (4H380-AA): -0.0955
- interaction score (4H3049-AA): 1.67
- interaction score (4H249-AA): 1.18
Binder: DEIAALEAENAALEAEIAALEAEIAALKG [4H130-AA]

- interaction score (P11A-bA): -1.39
- interaction score (P12A-bA): 1.91
- interaction score (P4A-bA): 1.83
- interaction score (P1A-bA): 0.307
- interaction score (P9A-bA): -0.585
- interaction score (P6A-bA): 0.118
- interaction score (P3A-bA): -0.656
- interaction score (P2A-bA): 1.07
- interaction score (P8A-bA): -0.166
- interaction score (P7A-bA): -1.28
- interaction score (P5A-bA): 0.849
Binder: DENAQLEQEIAELEQEIAELEWKNAQLKQ [P11A-bA]
